From the supplement of paper PMC7877785
± gives the uncertainty stated by the source.

Test: self-splicing fitness, log relative to wild type (ln ratio); higher = more splicing; Tetrahymena group I intron in knt gene, E. coli kanamycin selection, DiMSum; sequences stand for … in CUCUCU…GGAGGGAAAAGUUAUCAGGCAUGCACCUGGUAGCUAGUCUUUAAACCAAUAGAUUGCAUCGGUUUAAAAGGCAAGACCGUCAAAUUGCGGGAAAGGGGUCAACAGCCGUUCAGUACCAAGUCUCAGGGGAAACUUUGAGAUGGCCUUGCAAAGGGUAUGGUAAUAAGCUGACGGACAUGGUCCUAACCACGCAGCCAAGUCCUAAGUCAACAGAUCUUCUGUUGAUAUGGAUGCAGUUCACAGACUAAAUGUCGGUCGGGGAAGAUGUAUUCUUCUCAUAAGAUAUAGUCGGACCUCUCCUUAAUGGGAGCUAGCGGAUGAAGUGAUGCAACACUGGAGCCGCUGGGAACUAAUUUGUAUGCGAAAGUAUAUUGAUUAGUUUUGGAGUACUCGUGGUCG
Outline: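 Six replicate transformations of E. coli BL21(DE3) with a pET-22b(+) library were grown overnight at 37°C or 30°C. The library randomised all eight P1ex-region intron nucleotides, the intron lying in the knt kanamycin-resistance gene, and plates were LB agar with or without 25 μg/mL kanamycin plus 100 μg/mL carbenicillin, 50 μM IPTG and 0.2% rhamnose. Pooled colonies were amplicon-sequenced on an Illumina HiSeq 2500, and fitness is the DiMSum error-weighted combination of wild-type-normalised replicate fold changes, kanamycin versus none.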

Sequence | self-splicing fitness (ln) (30 °C) | self-splicing fitness (ln) (37 °C)
UGCCAGCAAUAUUACGACGU | -1.75 ± 0.14 | -1.26 ± 0.14
UGCCAGCAAUAUUACGCAUG | -1.28 ± 0.085 | -1.43 ± 0.13
UGCCAGCAAUAUUACGCUAC | -3.47 ± 0.16 | -2.78 ± 0.2
UGCCAGCAAUAUUACGCUUC | -3.19 ± 0.23 | -1.86 ± 0.22
UGCCAGCAAUAUUACGGACU | -0.709 ± 0.075 | 0.139 ± 0.089
UGCCAGCAAUAUUACGGCUA | 0.121 ± 0.12 | 0.121 ± 0.12
UGCCAGCAAUAUUACGGGCU | -2.6 ± 0.19 | -1.61 ± 0.18
UGCCAGCAAUAUUACGGUAG | -1.89 ± 0.12 | -0.428 ± 0.11
UGCCAGCAAUAUUACGUAUU | -2.8 ± 0.13 | -2.56 ± 0.16
UGCCAGCAAUAUUACGUCAU | -3 ± 0.16 | -2.38 ± 0.18
UGCCAGCAAUAUUACGUUGA | -2.21 ± 0.074 | -1.26 ± 0.082
UGCCAGCAAUAUUACGUUGC | -2.93 ± 0.17 | -2.93 ± 0.18
UGCGAGCAAUAUUACGACAC | -2.71 ± 0.3 | 0.803 ± 0.27
UGCGAGCAAUAUUACGACGC | -3.46 ± 0.25 | 
UGCGAGCAAUAUUACGACUA | -1.26 ± 0.23 | -1.09 ± 0.28
UGCGAGCAAUAUUACGAGCC |  | -1.67 ± 0.43
UGCGAGCAAUAUUACGAGUA | -0.846 ± 0.14 | -1.84 ± 0.2
UGCGAGCAAUAUUACGAUAG | -3.32 ± 0.27 | -1.7 ± 0.38
UGCGAGCAAUAUUACGAUGA | -2.13 ± 0.16 | -1.4 ± 0.13
UGCGAGCAAUAUUACGCACG | -2.22 ± 0.28 | -1.98 ± 0.36
UGCGAGCAAUAUUACGCCGC | -3.34 ± 0.36 | -1.3 ± 0.43
UGCGAGCAAUAUUACGCUAA | -1.92 ± 0.21 | -2.48 ± 0.26
UGCGAGCAAUAUUACGGCCG | -1 ± 0.38 | 
UGCGAGCAAUAUUACGGCGU | -2.58 ± 0.18 | -0.48 ± 0.2
UGCGAGCAAUAUUACGGGAG | -4.04 ± 0.19 | -2.61 ± 0.17
UGCGAGCAAUAUUACGGUUU | -3.14 ± 0.3 | -2.62 ± 0.34

Sequence | self-splicing fitness (ln) (30 °C) | self-splicing fitness (ln) (37 °C)
UGCGAGCAAUAUUACGUACG | -3.12 ± 0.21 | -2.49 ± 0.22
UGCGAGCAAUAUUACGUAUC | -1.76 ± 0.16 | -2.37 ± 0.34
UGCGAGCAAUAUUACGUUCA | -1.45 ± 0.11 | -0.32 ± 0.15
UGCUAGCAAUAUUACGCAAA |  | -0.861 ± 0.16
UGCUAGCAAUAUUACGCACU | -2.3 ± 0.11 | -1.11 ± 0.11
UGCUAGCAAUAUUACGCCAG |  | -2.17 ± 0.39
UGCUAGCAAUAUUACGCCCA | 0.275 ± 0.1 | 0.384 ± 0.13
UGCUAGCAAUAUUACGCCCU | -0.725 ± 0.27 | -0.338 ± 0.27
UGCUAGCAAUAUUACGCUAC | -2.72 ± 0.48 | -2.32 ± 0.47
UGCUAGCAAUAUUACGCUGA | -1.25 ± 0.12 | -1.18 ± 0.13
UGCUAGCAAUAUUACGCUUA | -1.31 ± 0.11 | -0.517 ± 0.12
UGCUAGCAAUAUUACGGCAA | -0.895 ± 0.16 | -1.1 ± 0.16
UGCUAGCAAUAUUACGGCUU | -0.619 ± 0.13 | -1.06 ± 0.15
UGCUAGCAAUAUUACGGGAG | -2.68 ± 0.17 | -1.65 ± 0.13
UGCUAGCAAUAUUACGGUGA | -1.42 ± 0.12 | -0.513 ± 0.13
UGCUAGCAAUAUUACGGUGU | -3.16 ± 0.14 | -2.38 ± 0.19
UGCUAGCAAUAUUACGUACG | -0.494 ± 0.09 | 0.0248 ± 0.1
UGCUAGCAAUAUUACGUACU | -0.707 ± 0.075 | -0.893 ± 0.089
UGCUAGCAAUAUUACGUGCG | -1.94 ± 0.1 | -1.7 ± 0.12
UGCUAGCAAUAUUACGUGGA | -3 ± 0.19 | -2.44 ± 0.15
UGCUAGCAAUAUUACGUGUG | -1.63 ± 0.08 | -0.822 ± 0.096
UGGAAGCAAUAUUACGACAC | -2.87 ± 0.17 | -3.13 ± 0.25
UGGAAGCAAUAUUACGACUU | 0.319 ± 0.15 | 0.0401 ± 0.17
UGGAAGCAAUAUUACGAGUU | -3.25 ± 0.19 | -1.8 ± 0.16
UGGAAGCAAUAUUACGAUCA | -0.348 ± 0.093 | 0.181 ± 0.12
UGGAAGCAAUAUUACGCAUC |  | -1.1 ± 0.3

Sequence | self-splicing fitness (ln) (30 °C) | self-splicing fitness (ln) (37 °C)
UGGAAGCAAUAUUACGCCAA | -1.12 ± 0.24 | -0.536 ± 0.26
UGGAAGCAAUAUUACGCCCC | -1.69 ± 0.41 | -1.36 ± 0.35
UGGAAGCAAUAUUACGCGAU | -2.02 ± 0.14 | -2.12 ± 0.25
UGGAAGCAAUAUUACGCGCU | -1.17 ± 0.21 | -1.52 ± 0.3
UGGAAGCAAUAUUACGCGGC | -2.11 ± 0.26 | -1.08 ± 0.26
UGGAAGCAAUAUUACGCGUU | -4.13 ± 0.18 | -3.03 ± 0.26
UGGAAGCAAUAUUACGCUCG | -0.853 ± 0.13 | -0.272 ± 0.15
UGGAAGCAAUAUUACGCUUU | -3.64 ± 0.23 | -2.64 ± 0.28
UGGAAGCAAUAUUACGGAAA | -1.8 ± 0.41 | -1.43 ± 0.4
UGGAAGCAAUAUUACGGAAU | -2.76 ± 0.12 | -1.01 ± 0.096
UGGAAGCAAUAUUACGUCCC | -0.397 ± 0.19 | 0.402 ± 0.22
UGGAAGCAAUAUUACGUCCG | -2.72 ± 0.21 | -2.41 ± 0.22
UGGAAGCAAUAUUACGUGGG | -2.89 ± 0.13 | -2.53 ± 0.18
UGGCAGCAAUAUUACGAACU | -1.29 ± 0.12 | -0.471 ± 0.16
UGGCAGCAAUAUUACGAAGU | -3.69 ± 0.37 | -2.62 ± 0.23
UGGCAGCAAUAUUACGACCU | 0.0278 ± 0.12 | 0.0625 ± 0.12
UGGCAGCAAUAUUACGAUGG | -1.48 ± 0.17 | -1.67 ± 0.18
UGGCAGCAAUAUUACGCCGU | -2.63 ± 0.18 | -2.02 ± 0.17
UGGCAGCAAUAUUACGCGGG | -2.76 ± 0.27 | -1.48 ± 0.24
UGGCAGCAAUAUUACGCGUA | -0.0648 ± 0.084 | -0.33 ± 0.087
UGGCAGCAAUAUUACGCUAA | -0.652 ± 0.06 | 0.116 ± 0.069
UGGCAGCAAUAUUACGCUAC | -3.85 ± 0.35 | 
UGGCAGCAAUAUUACGCUCC | -2.19 ± 0.37 | 
UGGCAGCAAUAUUACGCUGC | -2.98 ± 0.25 | 
UGGCAGCAAUAUUACGGAAA | -1.94 ± 0.16 | -0.318 ± 0.14
UGGCAGCAAUAUUACGGACA | 0.0855 ± 0.098 | 0.0548 ± 0.14
